Assay: yeast display, Sf9 membrane polyspecificity reagent, FACS + sequencing; frameworks hold sequencing errors
Summary of the method: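 A synthetic nanobody library was expressed on Saccharomyces cerevisiae BJ5465 by galactose induction for 36–48 hours. The library was stained for 1 hour at 4 °C with 10% biotinylated, detergent-solubilized Sf9 membrane reagent and enriched with streptavidin microbeads before FACS. Low and high (top ~1%) gates were set on anti-HA fluorescence for expression and streptavidin fluorescence for reagent binding, and each polyreactivity label reflects the gate of origin.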

Sequence	polyreactivity (PSR sort gate)
QVQLVESGGGLVQAGGSLRLSCAASGRILYSYTMGWYRPAPGKEREFVAAITRSGGGTYYADSVKGRFTISRDNAKNTVYLQMNSLKPEDTAVYYCAATRNPYRRSNYDYWGQGTQVTVSS	high polyreactivity
QVQLVESGGGLVQAGGSLRLSCAASGRILYWYAMGGYRQAPGKERELVAGIDWSGGSTYYADSVKGRFTISRDNAKNTVYLQMNSLKPEDTAVYYCNAVQNRGRGSHRGESTYYYWGQGTQVTVSS	low polyreactivity
QVQLVESGGGLVQAGGSLRLSCAASGRILYYYAMGWYRQAPGKERELVAAITWGGGSTYYADSVKGRFTISRDNAKNTVYLQMNSLKPEDTAVYYCNRTFRSRLPTSRGYDYWGQGTQVTVSS	low polyreactivity
QVQLVESGGGLVQAGGSLRLSCAASGRINAMGWYRQAPGKERELVAVITLRGGSTYYADSVKGRFTISRDNAKNTGYLQMNSLKPEDTAVYYCAAETLVSFWFDYWGQGTQVTVSS	low polyreactivity
QVQLVESGGGLVQAGGSLRLSCAASGRIRFYAMGWYIQAPGKERELVAAISSSGGSTYYADSVKGRFTISRDNAKNTVYLQMNSLKPEDTAVYYCAAAWYYLGTRAQLYDYWGQGTQVTVSS	low polyreactivity
QVQLVESGGGLVQAGGSLRLSCAASGRIRRYTMGWYRQAPGKVRELVASISGNGGSTYYADSVKGRFTISRDNAKNTVYLQMNSLKPEDTAVYYCARTKQEYTFGQFYLGDYWGQGTQVTVSS	low polyreactivity
QVQLVESGGGLVQAGGSLRLSCAASGRISAFNAMGWYRQAPGKERELVAAINVSGGNTYYADSVKGRFTISRDNAKNTVYLQMNSLKPEDTAVYYCAAERRRWGLDYYYWGQGTQVTVSS	high polyreactivity
QVQLVESGGGLVQAGGSLRLSCAASGRISESNDMGWSRQAPWKERELVAAISSSGGSTYYADSVKGRFTISRDNAKNTVYLQMNSLKPEDTAVYYCNAVYYRTVLKIGVYEYDYWGQGTQVTVSS	low polyreactivity
QVQLVESGGGLVQAGGSLRLSCAASGRISFRILWDGIDRRLGKKGSWLPLLTNTGSTNYADSVKGRFTISRDNAKNTVYLQIHSLKPEDTAVYDCNADPTGGSSYPAYFEYDYWGQGTQVTVSS	low polyreactivity
QVQLVESGGGLVQAGGSLRLSCAASGRISFRYAMGWSRQAPGKEWELVAAINRGGITNYADSVKGRFTISRDNAKNTVYFQMNSLKPEDTAVYYCAARYASPRYKSKMDYWGQGTQVTVSS	high polyreactivity
QVQLVESGGGLVQAGGSLRLSCAASGRISGVNAMGWYRQAPGKERELVATISGSGGRTYYADSVKGRFTISRDNAKNTVYLQMNSLKPEDTAVYYCNTLVQRGGYFSLRFDYWGQGTQVTVSS	low polyreactivity
QVQLVESGGGLVQAGGSLRLSCAASGRISLFNAMGWYRQAPGKERELVAAITYTGGSTYYADSVKGRFTISRDNAKNTVYLQMNSLKPEDTAVYYCAAEYYYVYTYDYWGQGTQVTVSS	high polyreactivity
QVQLVESGGGLVQAGGSLRLSCAASGRISLGNAMGWYRQAPGKERELVAVITRGGRTSYADSVKGRFTISRDNAKNTVYLQMNSLKPEDTAVYYCAAESPVYHLVTYDYWGQGTQVTVSS	high polyreactivity
QVQLVESGGGLVQAGGSLRLSCAASGRISLRNGMGWYRQAPGKERELVAAISRGGSTYYADSVKGRFTISRDNAKNTVYLHMNSLKPEDTAVYYCNAYIRPIYVDDDYWGQSTQVTVSS	low polyreactivity
QVQLVESGGGLVQAGGSLRLSCAASGRISLVNAMGWYRQAPGKERELVAAITYTGGSTYYADSVKGRFTISRDNAKNTVYLQMNSLKPEDTAVYYCAAEYYYVYTYDYWGQGTQVTVSS	high polyreactivity
QVQLVESGGGLVQAGGSLRLSCAASGRISLYAMGWYRQAPGKEREMVAAINGRGGNTYYADSVKGRFTISRDNAKNTVYLQMNSLKPEDTAVYYCNAVTVNGPYGYDYWGQGTQVTVSS	high polyreactivity

Sequence	polyreactivity (PSR sort gate)
QVQLVESGGGLVQAGGSLRLSCAASGRISQHNAMGWYRQAPGKERELVAAISWIGTSTYYADSVKGRFTISRDNAKNTVYLQMNSLKPEDTAVYYGWSTRGPPYIYLNYNYWGQGTQVTVSS	low polyreactivity
QVQLVESGGGLVQAGGSLRLSCAASGRISQTNAMGWYRQAPGKERELVAAISWRGGSTYYADSVKGRFTISRDNAKNTVYLQMNSLKPEDTAVYYCAVRGKYDRHYYWGQGTQVTVSS	high polyreactivity
QVQLVESGGGLVQAGGSLRLSCAASGRISRCYVMGRYRHAPGTERELVAAITWNSGSTYYADSVKGRFTISRDNAKNTVYLQMNSLTPEDTAVYYCAGVLYSRYQQYDYWGQGTQVTVSS	high polyreactivity
QVQLVESGGGLVQAGGSLRLSCAASGRISRSKTMGWYRQATGKERELFAVINTWIGGSTYYADSVKGRFTISRDNAKNTVYLQMNRQKPEDTAVYYCAADATLWDWWLDYDYWGQVTQVTVSS	high polyreactivity
QVQLVESGGGLVQAGGSLRLSCAASGRISRSNTMGWYRQGPGKERELVAAISRGGGSTYYADSVKGRFTISRDNAKNTVYLQMNSLKPEDTAVDYCAKAFRGHYWRQGTQVTVSS	high polyreactivity
QVQLVESGGGLVQAGGSLRLSCAASGRISSAYAMGWYRQAPGKERELVAAISSGTRTNYADSVKGRFTMSRDNAKNTVYLQMNSLKPEDTAVYYCNAVPGYVYYYQYWGQGTQVTVSS	high polyreactivity
QVQLVESGGGLVQAGGSLRLSCAASGRISSNVMGWYRQAPGKERELVAAISVSGARTYYADSVKGRFTISRDNAKNTVYLQMNSLKPEDTAVYDCAAVYGGVYYGGDYWGQGTQVTVSS	high polyreactivity
QVQLVESGGGLVQAGGSLRLSCAASGRISSYYVMGWYRQAPGKERELVAAITGGDSTNYADSVKGRFTISRDNAKNTVYLQMNSLKPEDTAVYYCNAYYWYLDDYWGQGSQVTVSS	high polyreactivity
QVQLVESGGGLVQAGGSLRLSCAASGRISTYYTMGWYRQAPGKERELVAAISWSGTSTYYADSVKGRFTISRDNAKNTVYLQMNSLKPEDTAVYYCNARWRYPLDSVTDDYWGQGTQVTVSS	high polyreactivity
QVQLVESGGGLVQAGGSLRLSCAASGRISVRIYAMGWYRQAPGKERELVAIISRSGGSTYYADSVKGRFTISRDNAKTTVYLQMNSLKPQDTAVYYCNARWSFSYTVWVASYWCLDDYWGQGTQVTVSS	high polyreactivity
QVQLVESGGGLVQAGGSLRLSCAASGRISVVNAMGWYRQAPGQERELVAAIRRASTNYADSVKGRFTISRDNAKKTVYLQMNSLKPEDTAVYYCAARVYGINIFEYWGQATQVTVSS	high polyreactivity
QVQLVESGGGLVQAGGSLRLSCAASGRISVYNAMGWYRQAPGKERELVAAISRGSTNYADSVKGRFTISRDNAKNTVYLQMNSLKPEDTAVYYCAARSVSFPWRRYAGYDYWGQGTQVTVSS	high polyreactivity
QVQLVESGGGLVQAGGSLRLSCAASGRISYTYSAMGWYRQAPGKERELVAAITRRGGSTSYADSVKGRFTISRDNAKNTVYLQMNSLKPDDTAVYYCAAVGSFHIVDYWGQGTQVTVSS	high polyreactivity
QVQLVESGGGLVQAGGSLRLSCAASGRIVADYAMGWYRQAPGKERELVAAIRGSGGDTYYADSVKGRFTISRDNAKNTDYLQMNSLKPEDTAVYYCNAVDTYDLDNDYWGQGTQVTVSS	low polyreactivity
QVQLVESGGGLVQAGGSLRLSCAASGRIVANAMGWYRQAPGKESELVAAITATYYADSVKGRFTISRDNAKNTVYLQMNSLKPEDTAVYYFNAYLSPKQPLSPPDPSFEGGYWGQGTQVTVSS	low polyreactivity
